Measurements: publication PMC5992146

Assays:
actin [1] = biological target: actin (UniProt P68135)
actin [2] = biological target: actin (UniProt P68135); experiment: co-sedimentation; MYO3A (0.5 µM) equilibrated with actin (0-60 µM) in KMg50 buffer (50 mM KCl, 1 mM EGTA, 1 mM MgCl2, 10 mM imidazole pH 7.0, 1 mM DTT) with ATP regeneration system, 1 mM ATP added, centrifuged 10 min at 25 °C; fraction bound from GFP fluorescence of the supernatant and from Coomassie SDS-PAGE, hyperbolic fit; steady-state actin affinity (K_Actin) in the presence of ATP

K (ATPase): actin concentration at which the steady-state actin-activated ATPase activity is one-half maximal (KMg50 buffer, 25 °C) (actin [1]) [µM]	Kd (actin [2]) [µM]	Substance
< 0.77	2.21	MYO3AΔK 2IQ c-GFP L697W (from UniProt Q8NEV4-1 1-1616) (domain or fragment)
1.93	4.69	MYO3AΔK 2IQ c-GFP WT (from UniProt Q8NEV4-1 1-1616) (domain or fragment)
